The values that follow are results of earlier work, collected in patent US20070032640A1, “Cytokine receptor” (priority 2001, published 2007).

Data set [1] concerns the target T1, gp130 (Homo sapiens, UniProt P40189).
T1 sequence (P40189 23-918): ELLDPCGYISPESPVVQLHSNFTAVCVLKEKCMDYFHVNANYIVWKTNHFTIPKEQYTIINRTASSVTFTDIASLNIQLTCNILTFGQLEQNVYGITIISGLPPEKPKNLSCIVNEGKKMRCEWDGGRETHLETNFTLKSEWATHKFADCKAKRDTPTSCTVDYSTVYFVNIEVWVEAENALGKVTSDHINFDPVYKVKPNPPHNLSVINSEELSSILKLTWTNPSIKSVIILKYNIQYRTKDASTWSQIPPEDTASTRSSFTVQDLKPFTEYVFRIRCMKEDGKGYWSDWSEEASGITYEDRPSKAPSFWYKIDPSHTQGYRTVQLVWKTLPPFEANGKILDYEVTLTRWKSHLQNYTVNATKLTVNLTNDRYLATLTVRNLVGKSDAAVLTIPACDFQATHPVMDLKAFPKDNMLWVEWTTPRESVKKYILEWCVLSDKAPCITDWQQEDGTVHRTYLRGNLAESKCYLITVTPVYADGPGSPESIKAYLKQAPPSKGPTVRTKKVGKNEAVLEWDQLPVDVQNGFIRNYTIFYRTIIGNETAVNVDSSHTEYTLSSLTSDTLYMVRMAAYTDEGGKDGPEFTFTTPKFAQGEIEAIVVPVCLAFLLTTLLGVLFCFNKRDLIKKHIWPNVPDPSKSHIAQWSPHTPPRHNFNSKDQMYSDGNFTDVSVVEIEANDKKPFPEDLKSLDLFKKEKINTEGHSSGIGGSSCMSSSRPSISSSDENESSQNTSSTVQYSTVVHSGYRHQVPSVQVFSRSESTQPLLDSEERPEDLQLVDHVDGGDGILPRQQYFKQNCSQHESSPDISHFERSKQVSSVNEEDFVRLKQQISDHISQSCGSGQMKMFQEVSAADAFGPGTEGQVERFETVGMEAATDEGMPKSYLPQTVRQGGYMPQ
Also on record: endogenous in cells; host or cells: human myeloma U266 cells. As to conditions: human myeloma U266 cells, high-affinity binding; read-out: affinity of IL-6/IL-6R complex for gp130; cited from earlier work.

A further data set concerns IL-6. As to conditions: IL-6 binding of IL-6R mutant, relative to wild type; cited from earlier work.
For data set [2], the target named is T1, gp130. As to conditions: IL-6R N-D mutant; cited from earlier work.

In the case of “IL-6/IL-6R complex: complex of IL-6 with the ligand binding α-chain receptor IL-6R”, the Kd with gp130 [1] is ~0.01 nM.

B1: N211: IL-6R N-D mutant at N211 (protein, UniProt P08887 20-468, looked up, variant N211D)
Interleukin-6 receptor …: LAPRRCPAQEVARGVLTSLPGDSVTLTCPGVEPEDNATVHWVLRKPAAGSHPSRWAGMGRRLLLRSVQLHDSGNYSCYRAGRPAGTVHLLVDVPPEEPQLSCFRKSPLSNVVCEWGPRSTPSLTTKAVLLVRKFQNSPAEDFQEPCQYSQESQKFSCQLAVPEGDSSFYIVSMCVASSVGSKFSKTQTFQGCGILQPDPPANITVTAVARDPRWLSVTWQDPHSWNSSFYRLRFELRYRAERSKTFTTWMVKDLQHHCVIHDAWSGLRHVVQLRAQEEFGQGEWSEWSPEAMGTPWTESRSPPAENEVSTPMQALTTNKDDDNILFRDSANATSLPVQDSSSVPLPTFLVAGGSLAFGTLLCIAIVLRFKKTWKLRALKEGKTSMHPPYSLGQLVPERPRPTPVLVPLISPPVSPSSLGSDNTSSHNRPDARDPRSPYDISNTDYFFPR
Regarding B1, the Binding in the data set on IL-6 was 75%. In the data set with gp130 [2], the “binding to gp130” value is listed as “N-D mutant, <10% binding to gp130”.
